Measured values as given in US6328728A, “Composition and method for enhancing electrotransport agent delivery” (Alza Corporation, priority 1997, dated 2001).

Assay: Electrophoretic mobility by capillary zone electrophoresis
Format: physicochemical
Conditions: for Electrophoretic Mobility / Electrophoretic Mobility (Average): 32° C.
Procedure: Since electrophoretic mobility (ie, the ability of a drug/agent to migrate in an electric field) is an important aspect of electrotransport drug delivery, the electrophoretic mobility of the drug/agent being delivered is predictive of suitability for transdermal electrotransport delivery. Electrophoretic mobility measurements were performed using a capillary zone electrophoresis instrument (model 2100 P/ACE instrument, Beckman Instruments, Inc., Palo Alto, Calif.). At acid pH values DB-WAX, DB-1, DB-17 (J&W Scientific, Folsom, Calif.) capillary columns were used either with 50 or 100 micron internal diameter column and CElect H75 (Supelco, Bellefonte, Pa.) capillary column with a 75 micron internal diameter. At alkaline pH values uncoated silica capillaries of length 57 cm with an internal diameter of 75 microns were used with an applied voltage of 20 kV. If any electroosmotic flow was present, it was detected using a neutral marker such as 0.01% benzyl alcohol (SIGMA, St. Louis, Mo.) or 1/500 mesityl oxide (Applied Biosystems, Foster City, Calif.). The optimum voltage was determined by doing an Ohm's Law test on each buffer and capillary system. The temperature of the capillary columns was set at 32° C. and a two second pressure injection was done. A UV detector was used to monitor peptide and markers at either 214 or 280 nm.
Voltage injection had to be used for the 27 cm length column. The voltage applied varied depending on the capillary length.
The following equation was used to determine electrophoretic mobility μ. [formula]
If the electroosmotic flow is detected, the following equation can be used.
μpeptide =μtotal -μneutral marker
The measurement procedures described above were conducted on an aqueous solution of the protein insulinotropin, with TWEEN® 20 (MW=1126 g/mol) as the surfactant, with the following modifications. The insulinotropin donor solution concentration was 0.12 mg/mL. One test was run in 10 mM sodium borate at pH 9.0 and another test in 10 mM sodium chloroacetate at pH 3.5.
Fractional changes (%δ) are defined as the difference between the reading at a given surfactant concentration (Ec) minus the reading at zero surfactant (E0), the quantity divided by the difference between the reading at saturated surfactant concentration (Es) minus the reading at zero surfactant (E0), i. e. %δ=(Ec -E0)/(Es-E0).
The measurement procedures described earlier were conducted in this example on an aqueous solution containing insulinotropin as the agent and dodecyl trimethyl ammonium chloride (DTAC) as the ionic surfactant with the following modifications. […]
The same measurement procedures were conducted using an aqueous solution of salmon calcitonin as the agent and the zwitterionic dodecyl sulfobetaine as the surfactant with the following modifications. The temperature was initially 32° C., the surfactant concentration was varied up to 30 mM, and the calcitonin concentration was 0.06 to 0.08 mM. Tables 7, 8, and 9 below provide the results obtained in terms of polypeptide ellipticity expressed as a function of zwitterionic surfactant concentration at pH 3.5 in 12 mM sodium chloroacetate (Table 7), 5.0 in 4 mM piperazine HCI (Table 8), and 6.5 in 15 mM sodium cacodylate (Table 9), respectively. Table 8, in addition, provides the results obtained on electrophoretic mobility and HIC retention time in a phenyl superose column at pH 5.0.

[1] = pH 3.5, 10 mM sodium chloroacetate, TWEEN 20 0
[2] = pH 3.5, 10 mM sodium chloroacetate, TWEEN 20 0.133 mM
[3] = pH 3.5, 10 mM sodium chloroacetate, TWEEN 20 0.266 mM
[4] = pH 3.5, 10 mM sodium chloroacetate, TWEEN 20 0.515 mM
[5] = pH 3.5, 10 mM sodium chloroacetate, TWEEN 20 1.00 mM
[6] = pH 3.5, 10 mM sodium chloroacetate, TWEEN 20 2.28 mM
[7] = pH 3.5, 10 mM sodium chloroacetate, TWEEN 20 4.44 mM
[8] = pH 9.0, 10 mM sodium borate, TWEEN 20 0
[9] = pH 9.0, 10 mM sodium borate, TWEEN 20 0.133 mM
[10] = pH 9.0, 10 mM sodium borate, TWEEN 20 0.266 mM
[11] = pH 9.0, 10 mM sodium borate, TWEEN 20 0.515 mM
[12] = pH 9.0, 10 mM sodium borate, TWEEN 20 1.00 mM
[13] = pH 9.0, 10 mM sodium borate, TWEEN 20 2.28 mM
[14] = pH 9.0, 10 mM sodium borate, TWEEN 20 4.44 mM
[15] = pH 9.0, 10 mM sodium borate, TWEEN 20 8.88 mM
[16] = pH 9.0, 10 mM sodium borate, TWEEN 20 13.3 mM
[17] = pH 9.0, 10 mM sodium borate, TWEEN 20 20.0 mg/mL
[18] = pH 9.0, 10 mM sodium borate, TWEEN 20 25.0 mg/mL

In the case of Salmon Calcitonin [reference compound], the “Electrophoretic Mobility” value (pH 5.0, 4 mM piperazine-HCl, dodecyl sulfobetaine 0, calcitonin 0.076 mM) is reported as 2.4 × 10^-4 cm^2 /V-sec, the “Electrophoretic Mobility” value (pH 5.0, 4 mM piperazine-HCl, dodecyl sulfobetaine 0.83 mM, calcitonin 0.076 mM) is reported as 2.3 × 10^-4 cm^2 /V-sec and the “Electrophoretic Mobility” value (pH 5.0, 4 mM piperazine-HCl, dodecyl sulfobetaine 1.64 mM, calcitonin 0.075 mM) is reported as 2.2 × 10^-4 cm^2 /V-sec. For the same substance, the “Electrophoretic Mobility” value (pH 5.0, 4 mM piperazine-HCl, dodecyl sulfobetaine 3.23 mM, calcitonin 0.074 mM) was 2.2 × 10^-4 cm^2 /V-sec, the “Electrophoretic Mobility” value (pH 5.0, 4 mM piperazine-HCl, dodecyl sulfobetaine 6.25 mM, calcitonin 0.072 mM) was 1.7 × 10^-4 cm^2 /V-sec and the “Electrophoretic Mobility” value (pH 5.0, 4 mM piperazine-HCl, dodecyl sulfobetaine 7.69 mM, calcitonin 0.071 mM) was 1.5 × 10^-4 cm^2 /V-sec. The “Electrophoretic Mobility” value (pH 5.0, 4 mM piperazine-HCl, dodecyl sulfobetaine 9.77 mM, calcitonin 0.069 mM) was 1.6 × 10^-4 cm^2 /V-sec, the “Electrophoretic Mobility” value (pH 5.0, 4 mM piperazine-HCl, dodecyl sulfobetaine 12.4 mM, calcitonin 0.067 mM) was 1.4 × 10^-4 cm^2 /V-sec and the “Electrophoretic Mobility” value (pH 5.0, 4 mM piperazine-HCl, dodecyl sulfobetaine 18.4 mM, calcitonin 0.062 mM) was 0.96 × 10^-4 cm^2 /V-sec. For the same substance, the “Electrophoretic Mobility” value (pH 5.0, 4 mM piperazine-HCl, dodecyl sulfobetaine 26.4 mM, calcitonin 0.056 mM) was 0.88 × 10^-4 cm^2 /V-sec.

With “Insulinotropin: the protein insulinotropin” the “Electrophoretic Mobility (Average)” value (pH 3.5, 10 mM sodium chloroacetate, DTAC 0) was 1.80 cm^2 /V-s × 10^-4, the “Electrophoretic Mobility (Average)” value (pH 3.5, 10 mM sodium chloroacetate, DTAC 0.83 mM) was 1.82 cm^2 /V-s × 10^-4 and the “Electrophoretic Mobility (Average)” value (pH 3.5, 10 mM sodium chloroacetate, DTAC 1.64 mM) was 1.81 cm^2 /V-s × 10^-4. For the same substance, the “Electrophoretic Mobility (Average)” value (pH 3.5, 10 mM sodium chloroacetate, DTAC 20.0 mM) was 3.46 cm^2 /V-s × 10^-4, the “Electrophoretic Mobility (Average)” value (pH 3.5, 10 mM sodium chloroacetate, DTAC 25.0 mM) was 3.33 cm^2 /V-s × 10^-4 and the “Electrophoretic Mobility” value [1] was -1.8 cm^2 /Vs ×10^-4. The “Electrophoretic Mobility” value [2] was -1.72 cm^2 /Vs ×10^-4, the “Electrophoretic Mobility” value [3] was -1.58 cm^2 /Vs ×10^-4 and the “Electrophoretic Mobility” value [4] was -1.32 cm^2 /Vs ×10^-4. For the same substance, the “Electrophoretic Mobility” value [5] was -1.14 cm^2 /Vs ×10^-4, the “Electrophoretic Mobility” value [6] was -1.08 cm^2 /Vs ×10^-4 and the “Electrophoretic Mobility” value [7] was -1.01 cm^2 /Vs ×10^-4. The “Electrophoretic Mobility, fractional change (% δ)” value [1] was 0, the “Electrophoretic Mobility, fractional change (% δ)” value [2] was 0.10 and the “Electrophoretic Mobility, fractional change (% δ)” value [3] was 0.28. For the same substance, the “Electrophoretic Mobility, fractional change (% δ)” value [4] was 0.61, the “Electrophoretic Mobility, fractional change (% δ)” value [5] was 0.84 and the “Electrophoretic Mobility, fractional change (% δ)” value [6] was 0.91. The “Electrophoretic Mobility, fractional change (% δ)” value [7] was 1.00, the “Electrophoretic Mobility” value [8] was -1.06 cm^2 Vs × 10^-4 and the “Electrophoretic Mobility” value [9] was -1.05 cm^2 Vs × 10^-4. The “Electrophoretic Mobility” value [10] was -1.01 cm^2 Vs × 10^-4, the “Electrophoretic Mobility” value [11] was -1.00 cm^2 Vs × 10^-4 and the “Electrophoretic Mobility” value [12] was -0.89 cm^2 Vs × 10^-4. For the same substance, the “Electrophoretic Mobility” value [13] was -0.73 cm^2 Vs × 10^-4, the “Electrophoretic Mobility” value [14] was -0.62 cm^2 Vs × 10^-4 and the “Electrophoretic Mobility” value [15] was -0.61 cm^2 Vs × 10^-4. The “Electrophoretic Mobility” value [16] was -0.55 cm^2 Vs × 10^-4, the “Electrophoretic Mobility” value [17] was -0.58 cm^2 Vs × 10^-4 and the “Electrophoretic Mobility” value [18] was -0.53 cm^2 Vs × 10^-4. For the same substance, the “Electrophoretic Mobility, fractional change (% δ)” value [8] was 0, the “Electrophoretic Mobility, fractional change (% δ)” value [9] was 0.02 and the “Electrophoretic Mobility, fractional change (% δ)” value [10] was 0.09. For the same substance, the “Electrophoretic Mobility, fractional change (% δ)” value [11] was 0.11, the “Electrophoretic Mobility, fractional change (% δ)” value [12] was 0.32 and the “Electrophoretic Mobility, fractional change (% δ)” value [13] was 0.62. The “Electrophoretic Mobility, fractional change (% δ)” value [14] was 0.83, the “Electrophoretic Mobility, fractional change (% δ)” value [15] was 0.85 and the “Electrophoretic Mobility, fractional change (% δ)” value [16] was 0.96. The “Electrophoretic Mobility, fractional change (% δ)” value [17] was 0.91 and the “Electrophoretic Mobility, fractional change (% δ)” value [18] was 1.00.
